# US8440804B2, “Polypeptides having modulatory effects on cells” (Ecole Normale Superieure de Lyon, priority 2006, dated 2013)
# B1: N9: R5G42 mutant having a one amino acid change (SEQ ID 33) (protein)
# chain: MVKQIESKTAFQEALDAAGDKLVVVDFSAAWCGPSAVTFAVCALGPCKMIKPFFHSLSEKYSNVIFLEVDVDDCQDVASECEVKCMPTFQFFKKGQKVGEFSGANKEKLEATINELV
# modifications: Aptamer R5G42 mutant N9
# Tests used:
# [1] = tested on: Raw1 cells (osteoclasts precursors); assay: Raw cell differentiation assay (osteoclast differentiation); assay type: cell-based; conditions: 4 days post-transfection, absence of RANKL
# From the text: Trx, CNA* and Peptide aptamers R5G42, C2, C7, C8 and N9 were transfected into RAW1 cells and left for four days in absence of the normal differentiation factor RANKL. CNA* is activated calcineurin A which elicits a robust differentiation response.
# The inventors assessed the ability of some CNA-specific peptide aptamers to promote osteoclast differentiation via the activation of CNA. […] The differentiation state was then observed 4 days post-transfection.
# Raw1 cells were transfected with the following plasmids: pCI-HA-Trx (negative control), pCI-HA CNA* (positive control for differentiation activation), pCI-HA R5G42, pCI-HA R5G42-C2, pCI-HA R5G42-C7, pCI-HA R5G42-C8 and pCI-HA R5G42-N9. The sequence of CNA* is the same as that of CNA8 (see FIG. 17, SEQ ID 42). The sequences of the R5G42 (SEQ ID 22), C2 (SEQ ID 23), C7 (SEQ ID 27), C8 (SEQ ID 28) and N9 (SEQ ID 33) aptamers is shown on FIG. 8.
# One day before the transfection, Raw I cells were plated in 6-well dishes at 50 cell/mm^2. Transfection was performed with FuGene 6 Reagent (Roche) using 2 μg of each plasmid and following supplier recommendations.
# 8 h after transfection D-MEM was changed with α-MEM. In the control dishes α-MEM+50 ng/ml RANKL was added. After 2 days, medium was changed with a fresh medium. The differentiation state was then observed 4 days post-transfection.
# [2] = tested on: tibialis anterior muscle atrophy; assay: In vivo tibia muscles denervation assay; conditions: mice, plasmid electroporation in hind legs, 14 days post-denervation
# Description: Vectors containing TRX, the R5G42, C7 or N9 aptamers or NaCl (control) were electroporated in mice hind legs (day 1) and an unilateral abolition of the motor innervation of the tibia muscles of the left hind leg was performed (day 3). After euthanasia of the mice (day 17) the tibialis anterior area was measured. Without denervation, the muscle area is relatively stable from one experiment to another (6.532.412+/−351.070, or 5.3% of variation). With denervation a reduced atrophy effect of about 27% and 48% is observed with aptamers R5G42 and N9 as compared to the atrophy effect obtained using the NaCl control (See FIGS. 19-20). The 100% of atrophy effect was evaluated using the data obtained with the NaCl control.
# Another group of mice hind legs were electroporated after the injection of vectors containing TRX, the R5G42, C7 or N9 aptamers or with NaCl (control) at day 1. A unilateral abolition of the motor innervation of the tibia muscles of the left hind leg was performed at day 3 in order to induce a muscular atrophy. The mice were then euthanised at day 17, i.e. 14 days after sciatic denervation of the left hind leg. […] With denervation a reduced atrophy effect of about 27% and 48% is observed with aptamers R5G42 and N9 as compared to the atrophy effect obtained using the NaCl control (FIG. 18). […]
molecule,measurement,setting,value
B1,osteoclast differentiation,[1],no osteoclasts fully differentiated were detectable
same,reduced atrophy effect as compared to the NaCl control (tibialis anterior area),[2],~48%
